For the series, the system named is Flt3-expressing 3T3 cells. Kind of series: Flt3 3T3 assay during purification of Pv-FRIL. Type of series: cell-based. The following applies: 80,000-fold purification; IL1-α or PHA-LCM as co-factor. As to the method:
To create factor-dependence for receptor-transfected 3T3 cells, growth conditions were compromised to permit only ligands to rescue cells from death. To do this, 3T3 cell lines were assayed in 96 well plates (Becton Dickinson Labware, Lincoln Park, N.J.) containing 3,000 cells in 100 μL of serum-free medium consisting of 10% AIMV (Life Technologies) and 90% DMEM. In each experiment, samples were serially diluted two-fold across rows starting at a 1:10 dilution. Viable cells were quantitated after 3-5 days by XTT (2,3-bis[Methoxy-4-nitro-5sulfophenyl]-2H-tetrazolium-5 carboxanilide inner salt) (Sigma, St. Louis, Mo.) (Roehm et al., supra). Relative activity (units/ml) and specific activity (units/mg) are defined as the reciprocal dilution at which half-maximal stimulation of cells was detected.
Each batch of PHA-LCM was generated in serum-free medium with cells from individual normal donors. To start purification, the PHA-LCM with Flt3 3T3 activity was pooled in 30 liter lots with approximately 10^7 Flt3 3T3 units. Twenty-five liters of PHA-LCM was diafiltered into 50 mM Tris-HCl, pH 7.6, 50 mM NaCl and then concentrated to 2-2.5 liters by tangential flow ultrafiltration on a 10 kDa molecular weight cutoff membrane (Pellicon, Millipore, Bedford, Mass.). A Blue-sepharose FF (Pharmacia Biotech) column (10 cm×15 cm) was equilibrated with 50 mM Tris-HCl, pH 7.4,50 mM NaCl. […]

B1: Pv-FRIL: FRIL family mannose-binding lectin from Phaseolus vulgaris (red kidney bean), SEQ ID NO: 6 (protein)
chain: AQSLSFNFTKFDLDQKDLIFQGDATSTNNVLQLTKLDSGGNPVGASVGRVLFSAPFHLWENSMAVSSFETNLTIQISTPHPYYAADGFAFFLAPHDTVIPPNSWGKFLGLYSNVFRNSPTSENQSFGDVNTDSRVVAVEFDTFPNANIDPNYRHIGIDVNSIKSKETARWEWQNGKTATARISYNSASKKSTVTTFYPGMEVVALSHDVDLHAELPEWVRVGLSASTGEEKQKNTIISWSFTSSLKNNEVKEPKEDMYIANVVRSYTWINDVLSYISNKMYDALNNNHKYVRCSTCMLFMKKK
Consider B1, for which the “specific activity of purified fraction” value is reported as 244,500 units/mg.

The values are drawn from US6991794B1, “Progenitor cell preservation factors and methods for and products of their use” (ImClone Systems Incorporated, priority 1997, dated 2006).
